Patent publication US20100095387A1, “METHODS AND REAGENTS FOR SCREENING NEW DRUGS AND FOR TREATING ION PUMP ASSOCIATED DISORDERS AND DISEASES” (priority 2005, published 2010)

Target: α3 subunit of the Na+/K+-ATPase, endogenous on mouse cells (cortical neurons, cortical slices, cardiac myocytes) (mouse) (UniProt Q6PIC6)
Experiment: cell-based or functional assay

EC50 of c-fos induction (Fos in situ enzyme-linked immunoassay, cortical cultures) [pM]	Substance
11.9	C-Ag95z0, soluble 95-kD COOH terminus of mouse agrin, y4 z0 (from UniProt A2ASQ1 1144-1950) (ligand)
12.7	C-Ag95z8, soluble 95-kD COOH terminus of mouse agrin, y4 z8 (from UniProt A2ASQ1 1144-1950) (ligand)
